Measurements reported in publication PMC11772548, “A Complex Interplay Between Melatonin and RORβ: RORβ is Unlikely a Putative Receptor for Melatonin as Revealed by Biophysical Assays” (Molecular Neurobiology, 2024).

Target: ligand-binding domain (LBD) of human RORβ (human, UniProt Q92753-2 250-450, Paper numbering follows the 459-aa isoform (RORβ1; Thr210, Cys262, LBD ending at the AF-2 end, 450), so +11 gives the 470-aa entry: printed 250-450 = 261-461. The paper's modelled LBD is 210-450 (= 22)
Assay: ITC; 2 mM SRC-1 peptide titrated into 50-100 µM LBD of RORβ; 20 mM Tris-HCl pH 8.6, 2 mM CHAPS, 100 mM NaCl, 5 mM DTT; Malvern MicroCal PEAQ-ITC
Settings: both partners purified

ligand-binding domain (LBD) of human RORβ, sequence (Q92753 250-450): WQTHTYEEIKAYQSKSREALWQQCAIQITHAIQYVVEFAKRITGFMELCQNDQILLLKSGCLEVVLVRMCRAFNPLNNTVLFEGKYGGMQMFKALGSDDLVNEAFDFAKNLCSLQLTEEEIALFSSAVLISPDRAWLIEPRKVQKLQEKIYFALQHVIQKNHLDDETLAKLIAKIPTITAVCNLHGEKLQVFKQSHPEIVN

Kd: 19.8 µM | dH: -1.1 kcal/mol
B1: SRC-1 co-activator peptide (peptide)
peptide: RHKILHRLLQEGSPS
notes: also called SRC-1 peptide; source: synthetic peptide (GenScript)
